Drawing on patent US6750046, this text covers Antithrombin Units per mg Oil Body Proteins and Thrombin Units Per Assay for two molecules.

The target in this experiment is thrombin. Description: cell-based or functional assay. Particulars: for Antithrombin Units per mg Oil Body Proteins: scale: antithrombin units per mg oil body protein; for Thrombin Units Per Assay: scale: thrombin units per assay.

Consider “hirudin released from the oleosin/hirudin fusion by Factor Xa”, for which the Antithrombin Units per mg Oil Body Proteins was determined as 0.55 and the Thrombin Units Per Assay came to 0.0065.

B1: Arabidopsis oleosin/hirudin fusion (protein, part only; not given: Factor Xa cleavage junction, Hirudo medicinalis, not shown: small tags and cut ends)
chain, part: MADTARGTHHDIIGRDQYPMMGRDRDQYQMSGRGSDYSKSRQIAKAATAVTAGGSLLVLSSLTLVGTVIALTVATPLLVIFSPILVPALITVALLITGFLSSGGFGIAAITVFSWIYKYATGEHPQGSDKLDSARMKLGSKAQDLKDRAQYYGQQHTGGEHDRDRTRGGQHTT
As to B1, the Antithrombin Units per mg Oil Body Proteins is < 0.001 and the Thrombin Units Per Assay stood at 0.14.
